Reference: US20250332238

How the values were obtained:
[1] = target: T1, TRMT112 (KMT9beta; tRNA methyltransferase subunit 11-2, isoform 2, Homo sapiens)
T1 chain: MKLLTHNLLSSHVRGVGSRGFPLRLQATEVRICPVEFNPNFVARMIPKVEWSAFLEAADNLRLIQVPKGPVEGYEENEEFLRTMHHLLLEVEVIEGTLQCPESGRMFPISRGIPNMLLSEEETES

[2] = target: histone H4, P62805
[3] = target: ETF1, P62495
[4] = target: mutant histone H4 where K12 was changed to alanine (H4K12A), P62805

B1: C21orf127 (KMT9alpha; N-6 adenine-specific DNA methyltransferase 1, isoform 1, Homo sapiens) (protein)
chain: MAGENFATPFHGHVGRGAFSDVYEPAEDTFLLLDALEAAAAELAGVEICLEVGSGSGVVSAFLASMIGPQALYMCTDINPEAAACTLETARCNKVHIQPVITDLVKGLLPRLTEKVDLLVFNPPYVVTPPQEVGSHGIEAAWAGGRNGREVMDRFFPLVPDLLSPRGLFYLVTIKENNPEEILKIMKTKGLQGTTALSRQAGQETLSVLKFTKS
- HMT activity (methylation assay) [1]: only the C21orf127/TRMT112 heterodimer displayed HMT activity

B2: C21orf127(Y125A)/TRMT112 complex (protein)
chain 1: MAGENFATPFHGHVGRGAFSDVYEPAEDTFLLLDALEAAAAELAGVEICLEVGSGSGVVSAFLASMIGPQALYMCTDINPEAAACTLETARCNKVHIQPVITDLVKGLLPRLTEKVDLLVFNPPAVVTPPQEVGSHGIEAAWAGGRNGREVMDRFFPLVPDLLSPRGLFYLVTIKENNPEEILKIMKTKGLQGTTALSRQAGQETLSVLKFTKS
chain 2: MKLLTHNLLSSHVRGVGSRGFPLRLQATEVRICPVEFNPNFVARMIPKVEWSAFLEAADNLRLIQVPKGPVEGYEENEEFLRTMHHLLLEVEVIEGTLQCPESGRMFPISRGIPNMLLSEEETES
- methylation of H4K12 (methylation assay) [2]: resulted in methylation of H4K12, but not ETF1 by the mutant C21orf127(Y125A)/TRMT112 complex
- methylation of ETF1 (methylation assay) [3]: resulted in methylation of H4K12, but not ETF1 by the mutant C21orf127(Y125A)/TRMT112 complex

B3: C21orf127/TRMT112 heterodimer (KMT9) (protein)
chain 1: MAGENFATPFHGHVGRGAFSDVYEPAEDTFLLLDALEAAAAELAGVEICLEVGSGSGVVSAFLASMIGPQALYMCTDINPEAAACTLETARCNKVHIQPVITDLVKGLLPRLTEKVDLLVFNPPYVVTPPQEVGSHGIEAAWAGGRNGREVMDRFFPLVPDLLSPRGLFYLVTIKENNPEEILKIMKTKGLQGTTALSRQAGQETLSVLKFTKS
chain 2: MKLLTHNLLSSHVRGVGSRGFPLRLQATEVRICPVEFNPNFVARMIPKVEWSAFLEAADNLRLIQVPKGPVEGYEENEEFLRTMHHLLLEVEVIEGTLQCPESGRMFPISRGIPNMLLSEEETES
- in vitro methylation assay with SAM [3H] (FIG. 1A, FIG. 1B) [2]: wild-type H4 protein, but not mutant H4 where K12 was changed to an alanine (A) residue (H4K12A), was methylated
- in vitro methylation assay with SAM [3H] (FIG. 1B) [4]: wild-type H4 protein, but not mutant H4 where K12 was changed to an alanine (A) residue (H4K12A), was methylated
